Experimental data as given in US11548923B2, “Peptide compositions and methods of use thereof for disrupting TEAD interactions” (Fred Hutchinson Cancer Center, priority 2017, dated 2023).

Key:
[1] = test system: HeLa cells expressing the HaloEnzyme; type: cell-based; settings: 1 μM HT-labeled peptide, 4 hours
Experimental: HeLa cells expressing the HaloEnzyme (a modified bacterial haloalkane dehalogenase, further modified to target to the cytosol-facing side of the outer mitochondrial membrane) were grown in 24 well dishes until ˜60% confluent. […] After incubation, cells were rinsed and incubated with Opti-MEM for 30 minutes, and were then incubated with 5 μM HT-TAMRA ligand (Promega G8251) for 30 minutes. An additional control with no HT-TAMRA was tested. After this incubation, cells were rinsed with PBS and then imaged on a fluorescent microscope in FITC/green (all cells) and TRITC/red (HT-TAMRA accumulation) channels.
FIG. 28 illustrates cell-by-cell quantitation of average fluorescence in the red channel of cells in a CAPA.

[2] = target: T1, biotinylated TEAD (Homo sapiens, UniProt P28347); test: Surface plasmon resonance (SPR) binding of soluble peptides to captured biotinylated TEAD; settings: biotinylated TEAD immobilized on an SPR chip, read-out: dissociation constant (KD)
T1 construct: GST; made in house; host or cells: Hi5 insect cells (baculovirus, BacMagic, pIEX-BAC3)
T1 sequence (P28347 209-426): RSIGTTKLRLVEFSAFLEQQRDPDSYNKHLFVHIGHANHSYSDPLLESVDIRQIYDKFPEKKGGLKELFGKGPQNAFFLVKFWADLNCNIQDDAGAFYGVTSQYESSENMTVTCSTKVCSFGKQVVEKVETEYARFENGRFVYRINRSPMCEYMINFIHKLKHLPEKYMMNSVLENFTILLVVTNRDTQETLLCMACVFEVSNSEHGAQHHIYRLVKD

[3] = SYPRO Orange thermal shift (melting) assay; type: physicochemical; settings: heating from 20° C. to 95° C.
Experimental: Thermal Shift Assay. Protein melting temperature (Tm) determination can be performed by monitoring protein unfolding using SYPRO Orange dye (Molecular Probes). In brief, 0.1 mg/mL protein sample in 20 μL total volume PBS buffer can be mixed with 2 μL of 10×SYPRO Orange dye. Dye intercalation into the hydrophobic protein core following protein unfolding was assayed using the C1000 Touch Thermal Cycler with CFX96 Deep Well Real-Time System (BioRad). Samples were heated from 20° C. to 95° C. with stepwise increments of 0.5° C. per minute and a 5 see hold step for every point, followed by fluorescence reading. Tm were calculated by analyzing the derivatives of Relative florescence Units (RFU).
Protein secondary structures were assessed using Circular Dichroism (CD). CD spectra were measured with a Jasco J-720W spectropolarimeter using a 1.0 mm path length cell. Protein samples in 10 mM phosphate buffer (pH=7.4) were at 25-30 μM protein concentration. Samples were analyzed at wavelength ranges of 260-190 nM. Data were expressed in terms of relative ellipticity; (mdeg). […] Samples were heated from 20° C. to 95° C. with stepwise increments of 0.5° C. per minute and a 5 sec hold step for every point, followed by fluorescence reading. Tm was calculated by analyzing the derivatives of Relative florescence Units (RFU). […]

B1: GSGDCLPHLKRCKADNDCCGKKCKRRGTNAEKRCREPKSSDKTHTPDEYIERAKECCKKQDIQCCLRIFDESKDPNVMLICLFCW (peptide)
chain: GSGDCLPHLKRCKADNDCCGKKCKRRGTNAEKRCREPKSSDKTHTPDEYIERAKECCKKQDIQCCLRIFDESKDPNVMLICLFCW
- cell penetration [1]: high cell penetration

B2: Siderocalin-fused YAP: YAP (50-171) produced as a soluble siderocalin fusion (protein)
chain: QDSTSDLIPAPPLSKVPLQQNFQDNQFQGKWYVVGLAGNAILREDKDPQKMYATIYELKEDKSYNVTSVLFRKKKCDYWIRTFVPGCQPGEFTLGNIKSYPGLTSYLVRVVSTNYNQHAMVFFKKVSQNREYFKITLYGRTKELTSELKENFIRFSKSLGLPENHIVFPVPIDQCIDGAGHQIVHVRGDSETDLEALFNAVMNPKTANVPQTVPMRLRKLPDSFFKPPEPKSHSRQASTDAGTAGALTPQHVRAHSSPASLQLGAVSPGTLTPTGVVSGPAATPTAQHLRQSSFEIPDDV
modifications: left off: small tags and cut ends
- Kd [2]: 570 nM

B3: Human siderocalin: Human siderocalin (HuScn), control protein in SYPRO Orange melting assay (protein, UniProt P80188 21-198, looked up)
Neutrophil …: QDSTSDLIPAPPLSKVPLQQNFQDNQFQGKWYVVGLAGNAILREDKDPQKMYATIYELKEDKSYNVTSVLFRKKKCDYWIRTFVPGCQPGEFTLGNIKSYPGLTSYLVRVVSTNYNQHAMVFFKKVSQNREYFKITLYGRTKELTSELKENFIRFSKSLGLPENHIVFPVPIDQCIDG
- melting temperature [3]: 79 °C
